# From article PMC3397948, “Cytoplasmic Sulfurtransferases in the Purple Sulfur Bacterium Allochromatium vinosum: Evidence for Sulfur Transfer from DsrEFH to DsrC” (PLoS ONE, 2012)
# B1: DsrC from Allochromatium vinosum, wild type [Allochromatium vinosum] / DsrEFH from Allochromatium vinosum (DsrE2F2H2 heterohexamer), wild type [Allochromatium vinosum] (parent complex)
# chain 1: MADTIEVDGKQFAVDEEGYLSNLNDWVPGVADVMAKQDNLELTEEHWDIINFLREYYEEYQIAPAVRVLTKAVGKKLGKEKGNSKYLYSLFPYGPAKQACRFAGLPKPTGCV
# chain 2: MKFALQINEGPYQHQASDSAYQFAKAALEKGHEIFRVFFYHDGVNNSTRLTTPPQDDRHIVNRWAELAEQYELDMVVCVAAAQRRGIVDEGEASRNGKDATNIHPKFRISGLGQLVEAAIQADRLVVFGD
# chain 3: MSEVVKKFMYLNRKAPYGTIYAWEALEVVLIGAAFDQDVCVLFLDDGVYQLTRGQDTKGIGMKNFSPTYRTLGDYEVRRIYVDRDSLEARGLTQDDLVEIAFEDMETEEEFDNIVEVIDSARVSELMNESDAVFSF
# chain 4: MSILHTVNKSPFERNSLESCLKFATEGASVLLFEDGIYAALAGTRVESQVTEALGKLKLYVLGPDLKARGFSDERVIPGISVVDYAGFVDLTTECDTVQAWL
# Variants of: B1
# Experiment: SPR; DsrEFH immobilized; reduced analyte, 80 nM; parent: 35; read off a plot
row,Variant,response
1,chain 1 C111S,~3 RU
2,"chain 1 C100S, chain 1 C111S",~2.8 RU
3,chain 1 C100S,~31 RU
